Laboratory results published in patent publication US20240199754A1 (VANCOUVER BIOTECH LTD., priority 2021, published 2024).

Molecular target: T1, N1-29 synthetic oligopeptide of human GnRH receptor (human)
T1 construct: Synthetic peptide coated on microwells; also called human N1-29 peptide; N1-29 oligopeptide
T1 peptide: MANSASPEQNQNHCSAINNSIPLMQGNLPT
Experiment: ELISA on well-coated N1-29 peptide, goat anti-human IgG-alkaline phosphatase, OD 405 nm
Text: Goat anti-human IgG labeled with alkaline phosphatase was used as the second antibody for signal detection. P-nitrophenyl phosphate was used as the substrate and monitored at 405 nm and double log plot presented.

binding result: binds
B1: GHR-106(hIgG4), humanized IgG4 GHR-106 monoclonal antibody (antibody, V domains shown)
VH: QVQLQESGPGLVKPSETLSLTCTVSGFSLSRYSVHWIRQPPGKGLEWIGMIWGGGSTDYNPSLKSRVTISKDNSKSQVFLKMSSVTAADTAMYYCARGNDGYYSFAYWGQGTLVTVSS
VL: DIVMTQSPDSLAVSLGERATINCKSSQSLLNSRTRKNYLAWYQQKPGQSPKLLIYWASTRESGVPDRFSGSGSGTDFTLTISSLQAEDVAVYYCKQSYNLYTFGQGTKLEIKR
notes: Humanized IgG4
